T1: human claudin-4 (Homo sapiens, UniProt O14493)
T1 sequence (O14493 1-209): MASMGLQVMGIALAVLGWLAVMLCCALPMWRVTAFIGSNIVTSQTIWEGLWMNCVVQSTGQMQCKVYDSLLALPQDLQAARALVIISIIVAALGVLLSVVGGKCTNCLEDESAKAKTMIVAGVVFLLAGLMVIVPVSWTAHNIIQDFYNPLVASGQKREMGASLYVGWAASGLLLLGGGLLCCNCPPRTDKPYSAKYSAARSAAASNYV

T2: human claudin-9 (Homo sapiens, UniProt O95484)
T2 sequence (O95484 1-217): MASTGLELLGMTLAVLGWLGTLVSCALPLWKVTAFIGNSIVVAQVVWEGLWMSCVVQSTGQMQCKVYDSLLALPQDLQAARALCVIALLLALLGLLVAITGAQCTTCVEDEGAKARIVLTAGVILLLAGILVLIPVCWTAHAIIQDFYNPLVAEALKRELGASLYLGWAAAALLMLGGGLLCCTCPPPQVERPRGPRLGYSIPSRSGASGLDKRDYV

T3: mouse claudin-1 (Mus musculus, UniProt O88551)
T3 construct: These cells were subjected to ethanol (50 mM) treatment to induce claudin-1 expression; endogenous in cells; host or cells: bEnd.3 mouse brain microvascular endothelial cells
T3 sequence (O88551 1-211): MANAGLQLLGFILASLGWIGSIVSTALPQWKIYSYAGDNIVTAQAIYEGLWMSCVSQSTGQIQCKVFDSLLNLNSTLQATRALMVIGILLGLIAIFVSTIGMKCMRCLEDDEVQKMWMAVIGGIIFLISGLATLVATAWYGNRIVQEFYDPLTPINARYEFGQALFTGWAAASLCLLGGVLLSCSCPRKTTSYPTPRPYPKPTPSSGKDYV

T4: human claudin-1 (Homo sapiens, UniProt O95832)
T4 construct: made in house
T4 sequence (O95832 1-211): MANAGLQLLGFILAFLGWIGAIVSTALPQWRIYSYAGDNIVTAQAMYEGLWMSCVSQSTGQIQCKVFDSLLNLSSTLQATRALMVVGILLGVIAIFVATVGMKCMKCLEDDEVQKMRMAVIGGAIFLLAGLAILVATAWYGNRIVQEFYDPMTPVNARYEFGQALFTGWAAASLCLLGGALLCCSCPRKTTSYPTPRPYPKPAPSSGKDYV

T5: claudin-1 (Mus musculus, UniProt O88551)
T5 sequence (O88551 1-211): T3 sequence (O88551 1-211)

T6: human claudin-4 (human, UniProt O14493 1-209, limits assumed)
T6 sequence (looked up): T1 sequence (O14493 1-209)

B1: C1C2-NP (C1C2 peptide conjugated to PEG diacid coated ultrasmall Gd nanoparticles) (peptide)
peptide: Ac-SSVSQSTGQIQSKVDSLLNLNSTQATR-NH2
modifications: not fully specified; also: conjugated by EDC-NHS chemistry to PEG diacid on Gd oxide nanoparticle surface (19 peptides per 3.5 nm particle)
notes: The protein part is the C1C2 peptide; the core is not a protein; also called C1C2-NPs; C1C2 NPs

Legend:
human claudin-4 [1] = molecular target: T1, human claudin-4; assay: Microscale thermophoresis (MST) binding; conditions: 0.1% beta-UDM buffer
Experimental: (§1) Human claudin-1 was expressed and purified as reported previously (Vecchio & Stroud, 2019, PNAS USA, 116:17817-24). MST measurements were performed using a Monolith instrument (NanoTemper Technologies). For experiments with human claudin-1, the assay buffer contained 10 mM Tris HCl, pH 8.0, 100 mM NaCl, 4% glycerol, and 0.04% n-Dodecyl-β-D-Maltopyranoside (β-DDM). NPs and peptides were labeled with AF647 prior to MST analysis as described above. For the binding experiments, the concentration of human claudin-1 was varied from 2.2-73,500 nM and the AF647-labeled C1C2-NP was fixed at 70 nM, while the AF647 labeled NPs and AF647 labeled C1C2 peptide were fixed at 1 and 0.3 μM, respectively. Binding of the AF647 labeled C1C2-NP to human claudin-3, -4, and -9 were tested using 0.4-14000 nM, 0.8-28000 nM, and 0.6-20000 nM, respectively; with the AF647 labeled C1C2-NP fixed at 70 nM. This assay buffer was similar, except β-DDM was replaced with 0.1% n-Undecyl-β-D-Maltopyranoside (beta-UDM). In order to check non-specific binding of β-DDM micelles to the AF647 labeled C1C2-NP, the concentration of beta-DDM was varied from 0.03-900 μM and the concentration of the AF647-labeled C1C2-NP was fixed at 1 μM. A similar experiment was performed wherein the concentration of beta-UDM was varied from 0.3-10,000 μM and the concentration of AF647-labeled control NP was fixed at 1 μM. The non-specific binding of human claudins 4 and 9 to the NP was examined by varying the concentrations of human claudins 4 and 9 from 0.7-20,100 nM and 0.8-31,100 nM, respectively. The human claudin sub-dilutions were mixed with the NPs or peptides and loaded in standard monolith NT.115 capillary tubes for measurement. All experiments were conducted at 23° C. using the nano-red channel of the Monolith instrument and the data were analyzed by using either Monolith analysis software or Graph Pad Prism, version 9 (Graph Pad Software, San Diego, California).

human claudin-9 = molecular target: T2, human claudin-9; assay: Microscale thermophoresis (MST) binding; conditions: 0.1% beta-UDM buffer
Experimental: as §1

mouse claudin-1 = molecular target: T3, mouse claudin-1; assay: In vitro immunofluorescence of NP binding in bEnd.3 cells (control and ethanol induced); assay type: cell-based; conditions: 4 hrs
Experimental: (§2) bEnd.3 cells were cultured according to the ATCC culture conditions in DMEM. These cells were subjected to ethanol (50 mM) treatment to induce claudin-1 expression and incubated with C1C2-NP for 4 hrs. For determining attachment of the C1C2-NP to human claudin-1, human claudin-1 encoded PCMV script plasmid was overexpressed in bEnd.3 cells and then incubated with C1C2-NP for 4 hrs.

human claudin-1 = molecular target: T4, human claudin-1; assay: In vitro immunofluorescence of NP binding in bEnd.3 cells transfected with human claudin-1 plasmid; assay type: cell-based; conditions: cells transfected to express human claudin-1; 4 hrs
Experimental: as §2

claudin-1 = molecular target: T5, claudin-1; conditions: corpus callosum and hippocampus, in vivo
Experimental: A fluorescence microscope (LSM800, Zeiss) was used to take the fluorescence image of mice brain. Mice were transcardially perfused after 2 h of MRI with 4% paraformaldehyde (PFA) in Dulbecco's phosphate-buffered saline (DPBS, Thermo Fisher Scientific, Waltham, MA). Brain tissue was collected, trimmed, and fixed in 4% buffered PFA for 24 h. The brains were moved into 30% sucrose in DPBS for 3 d at 4° C. for cryoprotection. The brains were then embedded in 2.6% carboxymethylcellulose (CMC, C4888, Sigma-Aldrich, St. Louis, MO), frozen on dry ice, and sliced coronally at a 15 μm thickness with cryotome (Leica Biosystems, Wetzlar, Germany). The brain slices were laid on poly-L-lysine coated microscope slides (Thermo Fisher Scientific) and dried overnight at RT. […]
Images were acquired with confocal microscopy at 40× objective lens magnification. Quantitative image analysis was performed with ImageJ software on at least two randomly selected viewing fields for each region for each mouse. The fluorescence signal of claudin-1 was thresholded to only integrate the density above 20 to remove the background fluorescence. Gamma correction was performed only on the representative images after the immunofluorescence quantification with shadows value of 0, midtones value of 0.26, and highlights value of 100 for all CMYK channels with Adobe Photoshop.

human claudin-4 [2] = molecular target: T6, human claudin-4; assay: MST, sigmoidal dose-response fit (GraphPad Prism) of the FIG. 10A data; confidence interval undefined [panel B]
Experimental: FIG. 10A is a graph showing binding of human claudins 3, 4 and 9 to C1C2-NPs using microscale thermophoresis. […] FIG. 10C is a graph showing the binding of human claudins 4 and 9 to control NPs monitored using microscale thermophoresis. […] Data fitting for human claudins 3, 4 and 9 were performed using Graph Pad Prism.
Human claudin-1 was expressed and purified as reported previously (Vecchio & Stroud, 2019, PNAS USA, 116:17817-24). MST measurements were performed using a Monolith instrument (NanoTemper Technologies). For experiments with human claudin-1, the assay buffer contained 10 mM Tris HCl, pH 8.0, 100 mM NaCl, 4% glycerol, and 0.04% n-Dodecyl-β-D-Maltopyranoside (β-DDM). NPs and peptides were labeled with AF647 prior to MST analysis as described above. For the binding experiments, the concentration of human claudin-1 was varied from 2.2-73,500 nM and the AF647-labeled C1C2-NP was fixed at 70 nM, while the AF647 labeled NPs and AF647 labeled C1C2 peptide were fixed at 1 and 0.3 μM, respectively. Binding of the AF647 labeled C1C2-NP to human claudin-3, -4, and -9 were tested using 0.4-14000 nM, 0.8-28000 nM, and 0.6-20000 nM, respectively; with the AF647 labeled C1C2-NP fixed at 70 nM. This assay buffer was similar, except β-DDM was replaced with 0.1% n-Undecyl-β-D-Maltopyranoside (beta-UDM).

Molecule | Binding to human claudin 4 (in words) (human claudin-4 [1]; listed as AF647-C1C2-NP) | Binding to human claudin 4 (in words) (human claudin-4 [1]; listed as C1C2-NPs) | Binding to human claudin 9 (in words) (human claudin-9; listed as AF647-C1C2-NP) | Binding to human claudin 9 (in words) (human claudin-9; listed as C1C2-NPs) | Binding to bEnd.3 cells (mouse claudin-1; claudin-1 induced by ethanol (50 mM)) | Binding to bEnd.3 cells (mouse claudin-1; control cells, low claudin-1 expression) | Binding to bEnd.3 cells (human claudin-1) | Localization relative to claudin-1 immunofluorescence staining (claudin-1) | LogEC50 (human claudin-4 [2])
C1C2-NP: PEG diacid coated ultrasmall Gd NP conjugated with C1C2 peptide SSVSQSTGQIQSKVDSLLNLNSTQATR (SEQ ID NO: 6); claudin-1 targeted (Ac-SSVSQSTGQIQSKVDSLLNLNSTQATR-NH2; also: conjugated to PEG diacid coated ultrasmall Gd nanoparticle) | weak | undefined 95% confidence intervals | weak | the data did not fit | much higher binding | no binding | High NP binding | co-localize | –
B1 | – | – | – | – | – | – | – | – | -4.7
